Laboratory results taken from patent publication US20240052047A1 (Pfizer, published 2024).

Legend:
Experiment in all cases: SPR Biacore 8K+, 37 C; mAb-4894 captured by anti-Fab, antigen as analyte; 1:1 Langmuir fit
[1] = target: T1, Cynomolgus monkey gp130 (cynomolgus monkey, UniProt P40189 23-619 (human entry), limits assumed)
T1 construct: Soluble SPR analyte; also called Cyno GP130; cyGP130
T1 chain: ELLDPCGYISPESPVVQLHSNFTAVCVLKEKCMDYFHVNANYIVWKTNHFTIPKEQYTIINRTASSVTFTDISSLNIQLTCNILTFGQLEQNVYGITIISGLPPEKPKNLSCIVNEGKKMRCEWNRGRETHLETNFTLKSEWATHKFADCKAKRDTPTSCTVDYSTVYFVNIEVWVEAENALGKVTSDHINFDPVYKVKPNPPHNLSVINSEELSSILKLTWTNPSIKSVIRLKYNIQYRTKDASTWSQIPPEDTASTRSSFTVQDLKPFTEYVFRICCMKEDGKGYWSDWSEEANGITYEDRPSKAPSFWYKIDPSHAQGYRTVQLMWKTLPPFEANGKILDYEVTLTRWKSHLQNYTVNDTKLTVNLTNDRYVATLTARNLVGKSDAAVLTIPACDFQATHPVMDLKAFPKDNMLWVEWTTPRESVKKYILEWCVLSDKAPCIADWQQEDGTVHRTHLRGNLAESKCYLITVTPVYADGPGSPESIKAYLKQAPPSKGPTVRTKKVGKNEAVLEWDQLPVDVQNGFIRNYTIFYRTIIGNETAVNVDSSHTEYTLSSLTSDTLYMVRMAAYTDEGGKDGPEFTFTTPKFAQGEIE
Procedure: (§1) The crossreactivity of mAb-4894 to human and cynomolgus monkey antigens, gp130 (human—SEQ ID NO: 45, cynomolgus—SEQ ID No: 46) and IL27RA (human—SEQ ID NO: 41, cynomolgus—SEQ ID No: 42), was measured by surface plasmon resonance by anti-FAB capture of mAb-4894 (containing arms of anti-IL27RA-4880 EE and anti-gp130-4875 RR) on a biacore chip. Human or cynomolgus monkey IL27RA or gp130 was flowed over the chip and on and off rates were determined, and the affinity constants calculated.
(§2) Flow cell 1 for each channel was used as a reference flow cell. After antibody capture, three-fold dilution series of cytokines with concentrations ranging from 405 nM to 15 nM for huGP130 and cyGP130 and 45 nM to 1.67 nM for huIL27R and cyIL27R or HBS-EP+ buffer were injected over the sensor surface for 60 seconds at 50 μl/minute. The dissociation was monitored for 600 seconds and the surface was regenerated with 2 injections of 10 mM Glycine pH 1.7 at 30 μl/minute. The data was double referenced (Myszka, D., J. Mol. Recognit 1999; 279-284). Binding affinities and rate constants were determined for human and cyno GP130 and IL27R by fitting the resulting sensorgram data to a 1:1 Langmuir model in BIAcore Insight Evaluation software version 3.0.12.15655 (Cytiva).

[2] = target: T2, Human IL27RA (human, UniProt Q6UWB1 33-516)
T2 construct: Soluble analyte in SPR and antigen in ELISA/screens; also called huIL27R
T2 sequence: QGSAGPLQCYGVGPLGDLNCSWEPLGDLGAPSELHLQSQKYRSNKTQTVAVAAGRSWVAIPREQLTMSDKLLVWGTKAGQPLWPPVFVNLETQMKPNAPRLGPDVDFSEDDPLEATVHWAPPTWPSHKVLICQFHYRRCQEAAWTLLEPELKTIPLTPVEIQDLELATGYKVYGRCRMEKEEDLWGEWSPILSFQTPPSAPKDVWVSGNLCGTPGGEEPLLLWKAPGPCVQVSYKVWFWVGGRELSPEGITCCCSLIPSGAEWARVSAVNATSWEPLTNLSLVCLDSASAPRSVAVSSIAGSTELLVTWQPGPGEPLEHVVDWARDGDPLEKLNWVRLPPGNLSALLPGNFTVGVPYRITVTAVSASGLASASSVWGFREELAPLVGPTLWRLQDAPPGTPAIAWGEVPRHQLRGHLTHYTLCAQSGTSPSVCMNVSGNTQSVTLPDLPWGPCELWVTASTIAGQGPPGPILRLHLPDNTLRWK
Procedure: as §1, §2

[3] = target: T3, Cynomolgus monkey IL27RA (cynomolgus monkey)
T3 construct: Soluble SPR analyte; also called Cyno IL27R; cyIL27R
T3 chain: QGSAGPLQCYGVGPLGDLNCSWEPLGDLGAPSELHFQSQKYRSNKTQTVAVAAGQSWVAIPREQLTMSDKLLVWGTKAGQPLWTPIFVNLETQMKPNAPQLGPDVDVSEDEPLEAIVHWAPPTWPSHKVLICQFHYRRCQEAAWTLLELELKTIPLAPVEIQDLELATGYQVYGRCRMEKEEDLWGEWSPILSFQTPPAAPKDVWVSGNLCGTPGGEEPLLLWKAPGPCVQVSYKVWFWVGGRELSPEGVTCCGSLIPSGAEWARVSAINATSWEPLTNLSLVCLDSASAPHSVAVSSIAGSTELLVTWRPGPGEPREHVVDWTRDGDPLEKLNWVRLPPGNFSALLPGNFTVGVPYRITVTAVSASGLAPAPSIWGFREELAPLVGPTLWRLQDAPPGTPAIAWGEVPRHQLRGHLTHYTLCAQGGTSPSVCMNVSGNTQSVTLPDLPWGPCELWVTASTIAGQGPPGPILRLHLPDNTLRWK
Procedure: as §1, §2

- Kd [1]: 188 nM
- koff [1]: 0.0403 s⁻¹
- kon [1]: 215000 M⁻¹ s⁻¹
- Kd [2]: 0.11 nM
- koff [2]: 0.00011 s⁻¹
- kon [2]: 998000 M⁻¹ s⁻¹
- Kd [3]: 1.68 nM
- koff [3]: 0.00195 s⁻¹
- kon [3]: 1.17e+06 M⁻¹ s⁻¹
B1: mAb-4894 anti-IL27RA/gp130 bispecific antibody (bispecific antibody, human IgG1)
heavy 1: EVQLVESGGGLVQPGGSLRLSCAASGFTFEYFGLQWVRQAPGKGLEWIGYTSSGGNYEYYEETLKGRFTISRDNAKNSLYLQMNSLRAEDTAVYYCARTKTGDYWGQGTLVTVSSASTKGPSVFPLAPSSKSTSGGTAALGCLVKDYFPEPVTVSWNSGALTSGVHTFPAVLQSSGLYSLSSVVTVPSSSLGTQTYICNVNHKPSNTKVDKKVEPKSCEKTHTCPPCPAPEAAGAPSVFLFPPKPKDTLMISRTPEVTCVVVDVSHEDPEVKFNWYVDGVEVHNAKTKPREEQYNSTYRVVSVLTVLHQDWLNGKEYKCKVSNKALPAPIEKTISKAKGQPREPQVYTLPPSREEMTKNQVSLTCEVKGFYPSDIAVEWESNGQPENNYKTTPPVLDSDGSFFLYSKLTVDKSRWQQGNVFSCSVMHEALHNHYTQKSLSLSPGK
light 1: DIQMTQSPSSLSASVGDRVTITCRASQDIGNSLTWYQQKPGKAPKRVIFGATGLAAGVPSRFSGSGSGTDFTLTISSLQPEDFATYYCLQSKQYPYTFGQGTKLEIKRTVAAPSVFIFPPSDEQLKSGTASVVCLLNNFYPREAKVQWKVDNALQSGNSQESVTEQDSKDSTYSLSSTLTLSKADYEKHKVYACEVTHQGLSSPVTKSFNRGEC
heavy 2: QVQLVQSGAEVKKPGSSVKVSCKVSGGSISSYYWSWVRQAPGQGLEWIGRIYITGNTNYNPSLKDRVTMTVDTSTSTHYMELSSLRSEDTAVYYCAREGPKLGIFDYWGQGTLVTVSSASTKGPSVFPLAPSSKSTSGGTAALGCLVKDYFPEPVTVSWNSGALTSGVHTFPAVLQSSGLYSLSSVVTVPSSSLGTQTYICNVNHKPSNTKVDKKVEPKSCRKTHTCPPCPAPEAAGAPSVFLFPPKPKDTLMISRTPEVTCVVVDVSHEDPEVKFNWYVDGVEVHNAKTKPREEQYNSTYRVVSVLTVLHQDWLNGKEYKCKVSNKALPAPIEKTISKAKGQPREPQVYTLPPSREEMTKNQVSLTCLVKGFYPSDIAVEWESNGQPENNYKTTPPVLDSDGSFFLYSRLTVDKSRWQQGNVFSCSVMHEALHNHYTQKSLSLSPGK
light 2: DIQMTQSPSSLSASVGDRVTITCRASQSVSSSYLAWYQQKPGKAPKLLIYGTESRATGVPSRFSGSGSGTDFTLTISSLQPEDFATYYCQQYGGYPTFGGGTKVEIKRTVAAPSVFIFPPSDEQLKSGTASVVCLLNNFYPREAKVQWKVDNALQSGNSQESVTEQDSKDSTYSLSSTLTLSKADYEKHKVYACEVTHQGLSSPVTKSFNRGEC
notes: Human IgG1 EE/RR heterodimer with L234A, L235A, G237A (EU); also called GBT-IL27R-4894; GBT-IL-27R-4894
